# In patent publication US12428656B2, “Nitrilase mutant and application thereof in the synthesis of 1-cyanocyclohexyl acetic acid” (priority 2020, dated 2025):
# How the values were obtained:
# N#CCC1(C#N)CCCCC1 [1] = assay: Kinetic parameters of the nitrilase mutant A205C; format: biochemical, Acidovorax facilis CCTCC NO: M 209044; details: other: A205C, pH 7.0, 20 mM phosphate buffer, 45° C., 6.75-40.49 mM substrate
# Protocol: (§1) The kinetic parameters of the purified protein in example 3 were determined, using 1-cyanocyclohexylacetonitrile as the substrate and the pure enzyme solutions of AcN-F168V, G180D, A205C, G180F, and G180D/A205C as the catalyst.
# (§2) 10 mL of the reaction system was as follows: the purified enzyme solution (165 U/g) was diluted 10 times with a pH 7.0, 20 mM phosphate buffer and the final concentration of the purified nitrilase was 0.2 mg/mL. The resulting enzyme solution was put into a reaction container, added with the substrate at final concentrations of 6.75-40.49 mM (6.75, 13.50, 20.24, 26.99, 33.74 and 40.49 mM, respectively) and added with a pH 7.0, 20 mM phosphate buffer as the reaction medium up to 10 mL, the reaction solution was reacted at 45° C. and 600 rpm for 5 min, 500 μL of the sample was taken out, 500 μL of 2 M HCl was added to terminate the reaction, and the concentration of 1-cyanocyclohexyl acetic acid in the reaction solution was determined by HPLC (The detection and analysis conditions are the same as that in example 4).
# (§3) Collected test data was used to conduct nonlinear fitting by Origin, thereby obtaining the Km value and Kcat value of the nitrilase E. coli BL21 (DE3)/pET-28b (+)-AcN-F168V and its combinatorial mutants E. coli BL21 (DE3)/pET-28b (+)-AcN-G180D, E. coli BL21 (DE3)/pET-28b (+)-AcN-G180F, E. coli BL21 (DE3)/pET-28b (+)-AcN-A205C and E. coli BL21 (DE3)/pET-28b (+)-AcN-G180D/A205C as shown in table 2.
# N#CCC1(C#N)CCCCC1 [2] = assay: Kinetic parameters of the nitrilase, purified AcN-F168V (parent); format: biochemical, Acidovorax facilis CCTCC NO: M 209044; details: other: AcN-F168V, pH 7.0, 20 mM phosphate buffer, 45° C., 6.75-40.49 mM substrate
# Protocol: as §1, §2, §3
# [3] = target: Acidovorax facilis CCTCC NO: M 209044 nitrilase AcN-F168V (SEQ ID No. 2) mutant G180D/A205C, SEQ ID No. 10 (Acidovorax facilis, UniProt Q1W2L4); assay: Kinetic parameters of the nitrilase double mutant G180D/A205C; format: biochemical; details: pH 7.0, 20 mM phosphate buffer, 45° C.
# Protocol: as §1, §2, §3
# N#CCC1(C#N)CCCCC1 [4] = assay: Kinetic parameters of the nitrilase mutant G180F; format: biochemical, Acidovorax facilis CCTCC NO: M 209044; details: other: G180F, pH 7.0, 20 mM phosphate buffer, 45° C., 6.75-40.49 mM substrate
# Protocol: as §1, §2, §3
# N#CCC1(C#N)CCCCC1 [5] = assay: Kinetic parameters of the nitrilase mutant G180D; format: biochemical, Acidovorax facilis CCTCC NO: M 209044; details: other: G180D, pH 7.0, 20 mM phosphate buffer, 45° C., 6.75-40.49 mM substrate
# Protocol: as §1, §2, §3
compound,measurement,setting,value
"Acidovorax facilis CCTCC NO: M 209044 nitrilase AcN-F168V (SEQ ID No. 2) mutant A205C, SEQ ID No. 8 (Acidovorax facilis; A205C/F168V)",Km,N#CCC1(C#N)CCCCC1 [1],3.40 ± 0.78 mM
same,Vmax,N#CCC1(C#N)CCCCC1 [1],1630 µmol/min/mg
same,kcat,N#CCC1(C#N)CCCCC1 [1],8317 s⁻¹
"Acidovorax facilis CCTCC NO: M 209044 nitrilase AcN-F168V, SEQ ID No. 2 (Acidovorax facilis; F168V)",Km,N#CCC1(C#N)CCCCC1 [2],16.25 ± 5.37 mM
same,Vmax,N#CCC1(C#N)CCCCC1 [2],1530 µmol/min/mg
same,kcat,N#CCC1(C#N)CCCCC1 [2],5573 s⁻¹
N#CCC1(C#N)CCCCC1 [1-cyanocyclohexylacetonitrile],Kcat,[3],24139 s⁻¹
same,Kcat/Km,[3],341.236 M⁻¹ s⁻¹
same,Vmax,[3],4.78 ± 0.73 mmolmg^−1min^−1
same,Km,[3]; 6.75-40.49 mM substrate,19.7 ± 7.4 mM
"Acidovorax facilis CCTCC NO: M 209044 nitrilase AcN-F168V (SEQ ID No. 2) mutant G180F, SEQ ID No. 6 (Acidovorax facilis; F168V/G180F)",Km,N#CCC1(C#N)CCCCC1 [4],5.88 ± 1.58 mM
same,Vmax,N#CCC1(C#N)CCCCC1 [4],2350 µmol/min/mg
same,kcat,N#CCC1(C#N)CCCCC1 [4],7612 s⁻¹
"Acidovorax facilis CCTCC NO: M 209044 nitrilase AcN-F168V (SEQ ID No. 2) mutant G180D, SEQ ID No. 4 (Acidovorax facilis; F168V/G180D)",Km,N#CCC1(C#N)CCCCC1 [5],3.21 ± 1.41 mM
same,Vmax,N#CCC1(C#N)CCCCC1 [5],1980 µmol/min/mg
same,kcat,N#CCC1(C#N)CCCCC1 [5],6624 s⁻¹
